Target: the molecule itself
Assay: crystal structure

B1: Salmonella typhi outer membrane phospholipase A (OmpLA), leaderless (21Q-289F) (enzyme)
chain: QEATIKEVHDAPAVRGSIIANMLQEHDNPFTLYPYDTNYLIYTNTSDLNKEAISTYNWSENARKDEVKFQLSLAFPLWRGILGPNSVLGASYTQKSWWQLSNSKESSPFRETNYEPQLFLGFATDYRFAGWTLRDVEMGYNHDSNGRSDPTSRSWNRLYTRLMAENGNWLVEVKPWYVIGSTDDNPDITKYMGYYQLKIGYHLGEAVLSAKGQYNWNTGYGGAEVGLSYPVTKHVRLYTQVYSGYGESLIDYNFNQTRVGVGVMLNDIF
Q: Does B1 bind?
A: binds

Reference: publication doi:10.1101/2020.01.08.898262 (bioRxiv, 2020)
